These are literature values, as cited in US20220133873A1, “CANCER THERAPY” (Madison Vaccines Inc., priority 2019, published 2022).

The conditions of series [1]: intravenously or subcutaneously, doses 50 to 500 μg/m2/day.
The test system of series [2] is advanced (metastatic) melanoma. As to conditions: 173 patients, 2 mg/kg or 10 mg/kg at 3-week intervals.

“GM-CSF: Granulocyte-macrophage colony-stimulating factor, vaccine adjuvant”: the tolerability entry in series [1] is “generally well tolerated”.
Regarding pembrolizumab, the “drug-related grade 3 or 4 adverse event reported in more than one patient” value in series [2] is listed as “Grade 3 fatigue”. Further, the overall response rate in series [2] (irrespective of dose) is 26%.
